{"source": "paper PMC9352680", "about": "“A comprehensive thermodynamic model for RNA binding by the Saccharomyces cerevisiae Pumilio protein PUF4”", "binders": {"B1": {"name": "Ic_S4_P5E.1_K5.1_C5.1_H5.1_A5.1_[T5G]_[T6C]_F5.1_[T9A]_[A10C]_T5.1 (ssRNA)", "RNA": "UUUGACAACUGAUCGUUCUUUCUUGUAGCAUACUUCUUUCUCGAUCAGUUGUCUUU"}, "B2": {"name": "Ic_S4_P5E.1_K5.1_C5.1_H5.1_A5.1_[T6A]_[A7G]_F5.1_[T8C]_[T9A]_[A10T]_T5.1 (ssRNA)", "RNA": "B1 RNA with G28U, C29A, A30G, U31C, C33U"}, "B3": {"name": "Ic_S4_P5E.1_K5.1_C5.1_H5.1_A5.1_[A7G]_F5.1_[T8G]_[A10T]_T5.1 (ssRNA)", "RNA": "B1 RNA with G28U, C29U, A30G, U31G, A32U, C33U"}, "B4": {"name": "Ic_S4_P5E.1_K5.1_C5.1_H5.1_A5.1_[T5G]_[T6C]_[A7T]_F5.1_[T9A]_[A10C]_T5.1 (ssRNA)", "RNA": "B1 RNA with A30U"}, "B5": {"name": "Ic_S4_P5E.1_K5.1_C5.1_H5.1_A5.1_[T5C]_[T6C]_[A7T]_F5.1_[T9A]_[A10G]_T5.1 (ssRNA)", "RNA": "B1 RNA with G28C, A30U, C33G"}, "B6": {"name": "Ic_S4_P5E.1_K5.1_C5.1_H5.1_A5.1_[T5C]_[A7C]_F5.1_[A10T]_T5.1 (ssRNA)", "RNA": "B1 RNA with G28C, C29U, A30C, A32U, C33U"}, "B7": {"name": "Ic_S4_P5E.1_K5.1_C5.1_H5.1_A5.1_[T6G]_[A7C]_F5.1_[T8C]_[T9A]_[A10T]_T5.1 (ssRNA)", "RNA": "B1 RNA with G28U, C29G, A30C, U31C, C33U"}, "B8": {"name": "Ic_S4_P5E.1_K5.1_C5.1_H5.1_A5.1_[T6A]_[A7T]_F5.1_[T8A]_[T9A]_[A10T]_T5.1 (ssRNA)", "RNA": "B1 RNA with G28U, C29A, A30U, U31A, C33U"}, "B9": {"name": "Ic_S4_P5E.1_K5.1_C5.1_H5.1_A5.1_[T6A]_[A7T]_F5.1_[T8A]_[T9C]_[A10G]_T5.1 (ssRNA)", "RNA": "B1 RNA with G28U, C29A, A30U, U31A, A32C, C33G"}, "B10": {"name": "Ic_S4_P5E.1_K5.1_C5.1_H5.1_A5.1_[T6G]_[A7T]_F5.1_[T8A]_[T9C]_[A10C]_T5.1 (ssRNA)", "RNA": "B1 RNA with G28U, C29G, A30U, U31A, A32C"}, "B11": {"name": "Ic_S4_P5E.1_K5.1_C5.1_H5.1_A5.1_[A7C]_F5.1_[T8G]_[A10T]_T5.1 (ssRNA)", "RNA": "B1 RNA with G28U, C29U, A30C, U31G, A32U, C33U"}, "B12": {"name": "Ic_S4_P5E.1_K5.1_C5.1_H5.1_A5.1_[T5A]_[A7C]_F5.1_[T8C]_[T9G]_[A10C]_T5.1 (ssRNA)", "RNA": "B1 RNA with G28A, C29U, A30C, U31C, A32G"}, "B13": {"name": "Ic_S4_P5E.1_K5.1_C5.1_H5.1_A5.1_[T5C]_[T6A]_[A7T]_F5.1_[T8A]_[T9G]_[A10T]_T5.1 (ssRNA)", "RNA": "B1 RNA with G28C, C29A, A30U, U31A, A32G, C33U"}, "B14": {"name": "Ic_S4_P5E.1_K5.1_C5.1_H5.1_A5.1_[T5A]_[A7T]_F5.1_[T8A]_[A10C]_T5.1 (ssRNA)", "RNA": "B1 RNA with G28A, C29U, A30U, U31A, A32U"}, "B15": {"name": "Ic_S4_P5E.1_K5.1_C5.1_H5.1_A5.1_[A7T]_F5.1_[T8A]_[T9A]_T5.1 (ssRNA)", "RNA": "B1 RNA with G28U, C29U, A30U, U31A, C33A"}, "B16": {"name": "Ic_S4_P5E.1_K5.1_C5.1_H5.1_A5.1_[T6C]_[A7G]_F5.1_[T8A]_[A10C]_T5.1 (ssRNA)", "RNA": "B1 RNA with G28U, A30G, U31A, A32U"}, "B17": {"name": "Ic_S4_P5E.1_K5.1_C5.1_H5.1_A5.1_[T5A]_[A7T]_F5.1_[T8C]_[T9C]_[A10T]_T5.1 (ssRNA)", "RNA": "B1 RNA with G28A, C29U, A30U, U31C, A32C, C33U"}, "B18": {"name": "Ic_S4_P5E.1_K5.1_C5.1_H5.1_A5.1_[T5C]_[T6C]_F5.1_[T8C]_[T9A]_[A10T]_T5.1 (ssRNA)", "RNA": "B1 RNA with G28C, U31C, C33U"}, "B19": {"name": "Ic_S4_P5E.1_K5.1_C5.1_H5.1_A5.1_[T5C]_[A7C]_F5.1_[T8A]_[T9C]_[A10G]_T5.1 (ssRNA)", "RNA": "B1 RNA with G28C, C29U, A30C, U31A, A32C, C33G"}, "B20": {"name": "Ic_S4_P5E.1_K5.1_C5.1_H5.1_A5.1_[T5C]_[T6A]_[A7G]_F5.1_[T9G]_[A10C]_T5.1 (ssRNA)", "RNA": "B1 RNA with G28C, C29A, A30G, A32G"}, "B21": {"name": "Ic_S4_P5E.1_K5.1_C5.1_H5.1_A5.1_[T6A]_[A7C]_F5.1_[T8C]_[T9G]_[A10G]_T5.1 (ssRNA)", "RNA": "B1 RNA with G28U, C29A, A30C, U31C, A32G, C33G"}, "B22": {"name": "Ic_S4_P5E.1_K5.1_C5.1_H5.1_A5.1_[T6C]_F5.1_[T8G]_[A10C]_T5.1 (ssRNA)", "RNA": "B1 RNA with G28U, U31G, A32U"}, "B23": {"name": "Ic_S4_P5E.1_K5.1_C5.1_H5.1_A5.1_[T5C]_[T6G]_[A7C]_F5.1_[T9A]_[A10C]_T5.1 (ssRNA)", "RNA": "B1 RNA with G28C, C29G, A30C"}, "B24": {"name": "Ic_S4_P5E.1_K5.1_C5.1_H5.1_A5.1_[T6C]_[A7T]_F5.1_[T9C]_[A10C]_T5.1 (ssRNA)", "RNA": "B1 RNA with G28U, A30U, A32C"}, "B25": {"name": "Ic_S4_P5E.1_K5.1_C5.1_H5.1_A5.1_[T5G]_[T6C]_[A7T]_F5.1_[T8C]_T5.1 (ssRNA)", "RNA": "B1 RNA with A30U, U31C, A32U, C33A"}}, "note": "Numbering of substitutions follows the chain as printed. Names and notes keep the numbering of the source.", "data": [{"target": "T1, PUF4 RNA-binding domain (Saccharomyces cerevisiae, UniProt P25339 537-888)", "T1 sequence": "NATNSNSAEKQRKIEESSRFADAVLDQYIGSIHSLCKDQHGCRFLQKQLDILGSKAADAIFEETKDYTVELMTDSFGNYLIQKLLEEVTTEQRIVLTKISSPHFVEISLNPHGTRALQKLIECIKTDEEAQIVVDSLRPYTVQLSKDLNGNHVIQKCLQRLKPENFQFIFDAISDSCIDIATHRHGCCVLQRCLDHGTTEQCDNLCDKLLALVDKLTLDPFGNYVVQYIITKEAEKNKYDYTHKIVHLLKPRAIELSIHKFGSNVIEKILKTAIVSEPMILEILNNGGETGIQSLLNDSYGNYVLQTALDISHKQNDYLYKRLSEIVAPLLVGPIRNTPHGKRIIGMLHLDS", "assay": "Mg; RNA-MaP; 20 mM Na-HEPES pH 7.4, 30 mM KOAc, 0.75 mM MgCl2, 0.1% Tween-20, 5% glycerol, 0.1 mg/mL BSA, 2 mM DTT; 25 C; 0.0125-409.6 nM protein", "settings": "tags: N-His6-TEV cleaved; C-SNAP kept, Cy3B-labelled; label: tethered on chip by stalled RNA polymerase", "units": {"Kd": "µM"}, "values": [{"binder": "UCUCUUUGUAUACUGUCUCUU (ssRNA)", "note": "[Ib_S1_P4E.1_K4.1_C4.1_H4.1_A4.1_[T7C]_F4.1_[A9G]_T4.1]", "Kd": 0.00539}, {"binder": "UCUCUUUGUAUAAUGUCUCUU (ssRNA)", "note": "[Ic_S1_P4E.1_K4.1_C4.1_H4.1_A4.1_[T7A]_F4.1_[A9G]_T4.1]", "Kd": 0.00603}, {"binder": "UCUCUUUGUAUAGUGUCUCUU (ssRNA)", "note": "[Ib_S1_P4E.1_K4.1_C4.1_H4.1_A4.1_[T7G]_F4.1_[A9G]_T4.1]", "Kd": 0.013}, {"binder": "UCUCUUUGUAUCUUUUCUCUU (ssRNA)", "note": "[Ib_S1_P4E.1_K4.1_C4.1_H4.1_A4.1_[A6C]_F4.1_[A9T]_T4.1]", "Kd": 0.0209}, {"binder": "B1", "Kd": 0.00693}, {"binder": "B2", "Kd": 0.0564}, {"binder": "B3", "Kd": 0.881}, {"binder": "B4", "Kd": 0.0244}, {"binder": "B5", "Kd": 0.00361}, {"binder": "B6", "Kd": 0.0109}, {"binder": "B7", "Kd": 0.0564}, {"binder": "B8", "Kd": 0.0024}, {"binder": "B9", "Kd": 0.00659}, {"binder": "B10", "Kd": 0.0286}, {"binder": "B11", "Kd": 0.0595}, {"binder": "B12", "Kd": 0.946}, {"binder": "B13", "Kd": 0.005}, {"binder": "B14", "Kd": 0.126}, {"binder": "B15", "Kd": 0.0389}, {"binder": "B16", "Kd": 1.83}, {"binder": "B17", "Kd": 0.179}, {"binder": "B18", "Kd": 0.158}, {"binder": "B19", "Kd": "> 2.3"}, {"binder": "B20", "Kd": 0.0106}, {"binder": "B21", "Kd": 0.144}, {"binder": "B22", "Kd": 0.342}, {"binder": "B23", "Kd": 0.00666}, {"binder": "B24", "Kd": 0.0172}, {"binder": "B25", "Kd": 0.0101}]}]}
